This is an account of results in US20250295803A1, “5T4 ANTIBODY-DRUG CONJUGATES AND USES THEREOF” (EXELIXIS, INC., priority 2022, published 2025).

The target in test [1] is T1, unconjugated human TPBG/5T4 protein with a c-terminal polyhistidine and Avi tag (AcroBiosystems Cat. No. … (human, UniProt Q13641 32-355)).
T1 construct: Bought protein; also called Acro TPGH52E5; Acro Catalog No. TPGH52E; not shown: C-terminal polyhistidine and Avi tag
T1 sequence: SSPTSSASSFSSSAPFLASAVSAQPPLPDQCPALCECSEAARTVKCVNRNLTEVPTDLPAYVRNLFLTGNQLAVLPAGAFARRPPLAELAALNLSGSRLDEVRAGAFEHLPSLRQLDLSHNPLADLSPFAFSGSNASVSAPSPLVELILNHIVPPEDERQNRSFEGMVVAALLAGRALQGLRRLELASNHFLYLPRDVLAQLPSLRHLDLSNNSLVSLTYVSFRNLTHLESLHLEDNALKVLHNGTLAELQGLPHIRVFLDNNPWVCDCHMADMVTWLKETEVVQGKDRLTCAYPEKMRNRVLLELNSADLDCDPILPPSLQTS
The experiment in a line: ELISA on coated human 5T4 His-Avi (Acro TPG-H52E5); antibody condition: pH 8.5 Day 7. As to the method: (§1) A. Normal Binding Unconjugated antibodies were tested for their ability to bind to human 5T4 (hu5T4) using ELISA. On Day 1, unconjugated human TPBG/5T4 protein with a c-terminal polyhistidine and Avi (AVITAG™) tag (AcroBiosystems (Newark, DE, USA), Cat. No. TPG-H52E5) was diluted 2 μg/mL in PBS, mixed thoroughly, plated 100 μL per well in a 96-well plate (Nunc MAXISORP®) and incubated overnight at 4° C.
A general note: ELISA stands for enzyme-linked immunosorbent assay.

In test [2] the target is T1, unconjugated human TPBG/5T4 protein …. In words: ELISA on coated human 5T4 His-Avi (Acro TPG-H52E5); antibody condition: PBS time 24 hr. As to the method:
as §1
(§2) 3. Oxidative Stress. Several unconjugated antibodies were tested for their ability to bind to 5T4 using ELISA in an oxidative environment. Solutions of 1 mg/mL to 10 mg/mL of antibody in 20 mM citrate/50 mM NaCl at a pH of 5.5 were prepared and stored at 37° C. for 1 to 2 weeks.

For test [3] the target is unchanged. The experiment in a line: ELISA on coated human 5T4 His-Avi (Acro TPG-H52E5); antibody condition: pH 8.5 Day 0. As to the method:
as §1

The target is the same in test [4]. The experiment in a line: ELISA on coated human 5T4 His-Avi (Acro TPG-H52E5); antibody condition: PBS + H2O2 time 0. As to the method:
as §1, §2

For test [5] the target is unchanged. In words: ELISA on coated human 5T4 His-Avi (Acro TPG-H52E5); antibody condition: pH 5.5 Day 14. As to the method:
as §1
2. Low pH Stress Test. Several unconjugated antibodies were tested for their ability to bind to 5T4 using ELISA under acidic (low pH) conditions. […]

Test [6] shares this target. In words: ELISA on coated human 5T4 His-Avi (Acro TPG-H52E5); antibody condition: pH 8.5 Day 14. As to the method:
as §1

For test [7] the target is unchanged. In words: ELISA on coated human 5T4 His-Avi (Acro TPG-H52E5); antibody condition: PBS + H2O2 time 24 hr. As to the method:
as §1
3. Oxidative Stress. Several unconjugated antibodies were tested for their ability to bind to 5T4 using ELISA in an oxidative environment. […]

Test [8] deals with T2, HEK293 and CHO cells transfected to express rat 5T4 (Rattus norvegicus, UniProt Q5PQV5).
T2 construct: expressed in transfected cells; host or cells: HEK293 and CHO
T2 sequence (Q5PQV5 32-426): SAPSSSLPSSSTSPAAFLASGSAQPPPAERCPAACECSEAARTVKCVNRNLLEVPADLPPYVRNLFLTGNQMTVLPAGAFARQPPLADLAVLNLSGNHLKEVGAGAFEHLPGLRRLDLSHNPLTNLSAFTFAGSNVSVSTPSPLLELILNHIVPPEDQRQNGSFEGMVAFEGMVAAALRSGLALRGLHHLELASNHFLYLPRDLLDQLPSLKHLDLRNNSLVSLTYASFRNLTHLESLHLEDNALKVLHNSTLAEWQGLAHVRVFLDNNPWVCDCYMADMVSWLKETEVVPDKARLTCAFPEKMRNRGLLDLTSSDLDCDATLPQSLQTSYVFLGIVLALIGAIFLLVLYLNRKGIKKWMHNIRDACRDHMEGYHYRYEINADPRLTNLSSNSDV
The experiment in a line: Cell binding to transfected HEK293 and CHO cells, rat 5T4. It is filed as cell-based. As to the method:
Unconjugated antibodies were tested for their ability to bind to HEK293 and CHO cells transfected to express human, cyno, rat, or mouse 5T4.

The next test relates to HEK-cyno-5T4 cells. The experiment in a line: Cell binding (flow cytometry), HEK-cyno-5T4 cells. The format is cell-based. As to the method:
Antibodies that were selected for binding to 5T4, for example, such as those described in Example 2, were evaluated for binding to cells that express 5T4. Cells were harvested at 70-90% confluence on the day of the assay. In a v-bottom 96-well plate (Costar 3897), 100,000 cells per well were incubated with 50 μL per well 8- or 12-point antibody dilution series for 30 minutes at +4° C. After incubation, cells were washed once with PBS by centrifugation at 200×g for 5 minutes. Cells were then incubated with 50 μL per well of Alexa Fluor 488 Goat anti-human IgG Fab (Jackson Immuno Research 109-547-003) at 1:100 dilution for 30 minutes at +4° C. Cells were washed twice with PBS by centrifugation at 200×g for 5 minutes and were acquired on iQue Screener Plus (Sartorius). Mean fluorescence intensities of BL1 (Alexa-Fluor-488) channel were plotted against antibody concentrations to generate a dose response curve and EC50 values.
A general note: Flow cytometry measures light scatter and fluorescence of single cells or particles in a stream.

B1: mAbA17 (antibody, V domains shown)
VH: EVQLVESGGGLVQPGGSLRLSCAASGFTFSRYWIHWVRQAPGKGLEWVAAIFPYSGSTLYADSVKGRFTISADTSKNTAYLQMNSLRAEDTAVYYCARSPSRSILPSGLDYWGQGTLVTVSS
VL: DIQMTQSPSSLSASVGDRVTITCRASQSVSSAVAWYQQKPGKAPKLLIYSASSLYSGVPSRFSGSRSGTDFTLTISSLQPEDFATYYCQQGDGSPYTFGQGTKVEIKR
notes: also called Antibody mAbA17
The EC50 is the midpoint of the concentration-response curve. As to B1, the EC50 in [1] is 158 pM; in [2], 186 pM; in test [3] it was 153 pM; in test [4] it was 188 pM; in test [5] it was 153 pM; in test [6], 167 pM. Also, the EC50 in test [7] is 183 pM.

B2: mAbA15 (antibody, V domains shown)
VH: EVQLVESGGGLVQPGGSLRLSCAASGFTFSSYYIHWVRQAPGKGLEWVAYITSTGSYTEYADSVKGRFTISADTSKNTAYLQMNSLRAEDTAVYYCARYDRSTRYSGLDYWGQGTLVTVSS
VL: DIQMTQSPSSLSASVGDRVTITCRASQSVSSAVAWYQQKPGKAPKLLIYSASSLYSGVPSRFSGSRSGTDFTLTISSLQPEDFATYYCQQAYATPVTFGQGTKVEIKR
notes: also called Antibody mAbA15
B2: the EC50 in [1] turned out to be 143 pM; in test [2] it was 212 pM; in test [3], 134 pM; in test [4], 191 pM; in test [5], 138 pM; in [6] it was 131 pM. Besides, the EC50 in test [7] worked out at 190 pM.

B3: mAbA17: 5T4 antibody comprising VH of SEQ ID NO:62 and VL of SEQ ID NO:63 (antibody, V domains shown)
VH: EVQLVESGGGLVQPGGSLRLSCAASGFTFSRYWIHWVRQAPGKGLEWVAAIFPYSGSTLYADSVKGRFTISADTSKNTAYLQMNSLRAEDTAVYYCARSPSRSILPSGLDYWGQGTLVTVSS
VL: DIQMTQSPSSLSASVGDRVTITCRASQSVSSAVAWYQQKPGKAPKLLIYSASSLYSGVPSRFSGSRSGTDFTLTISSLQPEDFATYYCQQGDGSPYTFGQGTKVEIK
modifications: Antibody mAbA17 VH Sequence; Antibody mAbA17 VL Sequence
For the molecule B3, the “reactivity to cells transfected to express rat 5T4” value (from here on “reactivity to cells transfected”) in test [8] is listed as “not to cells transfected to express rat or mouse 5T4”. For the same molecule, in the test with HEK-cyno-5T4 cells, the “binding to HEK-cyno-5T4 cells” value is listed as “binding”.

B4: mAbA4 (antibody, V domains shown)
VH: EVQLVESGGGLVQPGGSLRLSCAASGFTFSRYYIHWVRQAPGKGLEWVAFISPGGSYTYYADSVKGRFTISADTSKNTAYLQMNSLRAEDTAVYYCAREYYSMGVLDYWGQGTLVTVSS
VL: DIQMTQSPSSLSASVGDRVTITCRASQSVSSAVAWYQQKPGKAPKLLIYSASSLYSGVPSRFSGSRSGTDFTLTISSLQPEDFATYYCQQAYESPYTFGQGTKVEIKR
notes: also called Antibody mAbA4
Regarding B4, the EC50 in [1] was found to be 128 pM; in test [2], 200 pM; in test [3], 120 pM; in test [4] it was 225 pM; in [5] it was 122 pM; in test [6], 136 pM. For the same molecule, in test [7], the EC50 came to 393 pM.

B5: mAbA4: 5T4 antibody comprising VH of SEQ ID NO:25 and VL of SEQ ID NO:26 (antibody, V domains shown)
VH: EVQLVESGGGLVQPGGSLRLSCAASGFTFSRYYIHWVRQAPGKGLEWVAFISPGGSYTYYADSVKGRFTISADTSKNTAYLQMNSLRAEDTAVYYCAREYYSMGVLDYWGQGTLVTVSS
VL: DIQMTQSPSSLSASVGDRVTITCRASQSVSSAVAWYQQKPGKAPKLLIYSASSLYSGVPSRFSGSRSGTDFTLTISSLQPEDFATYYCQQAYESPYTFGQGTKVEIK
modifications: Antibody mAbA4 VH Sequence; Antibody mAbA4 VL Sequence
Turning to B5, the “reactivity to cells transfected” value in test [8] was “not to cells transfected to express rat or mouse 5T4”. Also, in the test with HEK-cyno-5T4 cells, the “binding to HEK-cyno-5T4 cells” value was “binding”.

B6: mAbA15: 5T4 antibody comprising VH of SEQ ID NO:44 and VL of SEQ ID NO:45 (antibody, V domains shown)
VH: EVQLVESGGGLVQPGGSLRLSCAASGFTFSSYYIHWVRQAPGKGLEWVAYITSTGSYTEYADSVKGRFTISADTSKNTAYLQMNSLRAEDTAVYYCARYDRSTRYSGLDYWGQGTLVTVSS
VL: DIQMTQSPSSLSASVGDRVTITCRASQSVSSAVAWYQQKPGKAPKLLIYSASSLYSGVPSRFSGSRSGTDFTLTISSLQPEDFATYYCQQAYATPVTFGQGTKVEIK
modifications: Antibody mAbA15 VH Sequence; Antibody mAbA15 VL Sequence
B6: the “reactivity to cells transfected” value in [8] is reported as “not to cells transfected to express rat or mouse 5T4”. For the same molecule, the “binding to HEK-cyno-5T4 cells” value in the test on HEK-cyno-5T4 cells was “binding”.
